Data taken from CN117751139A (YONGXIAN PHARMACEUTICAL CO LTD; UNIV AIX MARSEILLE; INST …, dated 2024).

Key:
[1] = biological target: T1, Nectin-1 extracellular domain Fc fusion recombinant protein (Nec1-VCC) (UniProt Q15223 31-355, limits assumed); experiment: ELISA, Nec1-VCC coated on plate, peroxidase-conjugated Ch-15A7.5
T1 construct: extracellular domain; also called Nectin-1-VCC-Fc; not shown: Fc part
T1 sequence (looked up): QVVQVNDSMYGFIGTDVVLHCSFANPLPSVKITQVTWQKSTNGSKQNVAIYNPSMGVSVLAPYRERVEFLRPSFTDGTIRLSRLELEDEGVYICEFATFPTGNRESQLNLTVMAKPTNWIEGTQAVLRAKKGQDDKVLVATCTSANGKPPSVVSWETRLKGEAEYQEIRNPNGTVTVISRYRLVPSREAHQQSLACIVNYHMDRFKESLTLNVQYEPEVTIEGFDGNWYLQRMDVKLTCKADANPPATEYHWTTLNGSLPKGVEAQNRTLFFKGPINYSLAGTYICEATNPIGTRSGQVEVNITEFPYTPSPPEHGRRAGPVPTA

[2] = biological target: T2, Nectin-4 extracellular domain Fc fusion recombinant protein (Nec4-VCC) (human, UniProt Q96NY8 32-349); experiment: statement in the legend of the competition ELISA on coated Nec4-VCC
T2 construct: extracellular domain; also called Nectin-4-VCC-Fc; not shown: Fc part
T2 sequence (looked up): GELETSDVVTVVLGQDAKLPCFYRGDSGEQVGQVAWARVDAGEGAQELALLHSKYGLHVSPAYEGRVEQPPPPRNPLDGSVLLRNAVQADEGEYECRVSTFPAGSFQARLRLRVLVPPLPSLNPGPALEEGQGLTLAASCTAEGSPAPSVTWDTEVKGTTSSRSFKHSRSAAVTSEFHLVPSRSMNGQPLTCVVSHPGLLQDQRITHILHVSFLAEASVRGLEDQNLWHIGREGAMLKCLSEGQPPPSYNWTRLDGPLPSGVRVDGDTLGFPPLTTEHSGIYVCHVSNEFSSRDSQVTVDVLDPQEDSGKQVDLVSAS

[3] = biological target: T3, human Nectin-4 on CHO cells transfected with human Nectin-4 cDNA (human, UniProt Q96NY8 32-510); experiment: flow cytometry competition on CHO cells with human Nectin-4; competitor Nec1-VCC
T3 construct: whole, on cells
T3 sequence (looked up): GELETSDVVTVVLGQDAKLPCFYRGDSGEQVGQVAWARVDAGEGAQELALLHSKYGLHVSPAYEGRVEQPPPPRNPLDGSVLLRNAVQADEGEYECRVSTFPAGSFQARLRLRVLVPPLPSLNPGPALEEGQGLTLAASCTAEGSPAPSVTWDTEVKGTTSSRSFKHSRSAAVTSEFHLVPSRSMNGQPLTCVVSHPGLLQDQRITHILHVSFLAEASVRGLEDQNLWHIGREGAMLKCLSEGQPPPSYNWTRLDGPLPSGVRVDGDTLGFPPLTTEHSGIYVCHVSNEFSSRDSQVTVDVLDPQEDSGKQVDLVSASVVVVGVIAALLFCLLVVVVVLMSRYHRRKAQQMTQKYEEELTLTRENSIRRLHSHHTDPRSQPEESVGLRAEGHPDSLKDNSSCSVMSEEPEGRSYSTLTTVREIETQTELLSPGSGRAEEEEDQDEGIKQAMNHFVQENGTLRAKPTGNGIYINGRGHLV

[4] = biological target: T4, Nectin-4 expressed by normal differentiated human keratinocytes (NHEK) (human, UniProt Q96NY8 32-510); experiment: flow cytometry on normal differentiated human keratinocytes (NHEK), 8 pM-33 nM; reference of the comparison
T4 construct: whole, on cells; also called Nectin-4 on NHEK; keratinocyte Nectin-4
T4 sequence (looked up): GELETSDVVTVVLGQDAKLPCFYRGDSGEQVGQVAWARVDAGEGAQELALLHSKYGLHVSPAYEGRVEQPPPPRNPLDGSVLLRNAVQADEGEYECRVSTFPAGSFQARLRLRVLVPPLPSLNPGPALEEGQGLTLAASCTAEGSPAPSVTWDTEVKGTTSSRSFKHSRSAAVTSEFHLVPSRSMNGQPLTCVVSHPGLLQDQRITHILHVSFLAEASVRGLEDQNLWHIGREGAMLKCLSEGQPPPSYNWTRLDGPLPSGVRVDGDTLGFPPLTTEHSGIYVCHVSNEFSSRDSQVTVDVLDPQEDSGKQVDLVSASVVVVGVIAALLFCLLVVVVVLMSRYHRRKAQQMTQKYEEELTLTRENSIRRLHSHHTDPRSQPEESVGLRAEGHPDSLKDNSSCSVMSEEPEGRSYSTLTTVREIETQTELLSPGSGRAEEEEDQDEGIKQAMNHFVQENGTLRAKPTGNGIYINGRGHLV

[5] = biological target: T5, human Nectin-4 with N-terminal Flag epitope tag, on transfected MDA-MB231 cells (human, UniProt Q96NY8 32-510); experiment: flow cytometry on MDA-MB231 cells transfected with N-terminally Flag-tagged Nectin-4
T5 construct: whole, on cells; also called PVRL4; PRR4
T5 sequence (looked up): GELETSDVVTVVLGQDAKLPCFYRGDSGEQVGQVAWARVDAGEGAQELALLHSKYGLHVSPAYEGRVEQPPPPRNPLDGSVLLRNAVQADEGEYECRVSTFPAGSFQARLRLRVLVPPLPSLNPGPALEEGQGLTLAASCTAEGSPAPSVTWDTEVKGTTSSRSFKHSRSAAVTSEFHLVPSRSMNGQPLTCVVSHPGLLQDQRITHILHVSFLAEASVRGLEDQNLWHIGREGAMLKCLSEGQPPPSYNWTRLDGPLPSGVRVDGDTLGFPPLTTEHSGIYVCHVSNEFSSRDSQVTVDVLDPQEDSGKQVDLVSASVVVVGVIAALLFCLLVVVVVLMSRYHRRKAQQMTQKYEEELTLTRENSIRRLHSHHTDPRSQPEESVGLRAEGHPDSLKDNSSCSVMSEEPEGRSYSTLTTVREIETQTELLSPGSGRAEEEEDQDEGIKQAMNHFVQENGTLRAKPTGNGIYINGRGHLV

B1: Ch-15A7.5 (antibody, V domains shown)
VH: EVKLVESGGGLVQPGGSRKLSCAASGFTFSNYGMAWVRQAPGKGPEWVAFISNLAYGINYADTVTGRFTISRENAKNTLYLEMRSLRSEDTAMYYCARGARATGWFAYWGQGTLVTVSA
VL: DIVMTQSQKFMSTSIGDRVSVTCKASQNVDTHVAWYQEKPGQSPKALIYSASYRYSGVPDRFTGSGSGTDFTLTISNVQSEDLADYFCQQYNSYPLTFGGGTKLEIK
notes: also called Ch-15A7.5 mAb; Ch-15A7 mAb
binding result [1]: no binding (tested: 10nM)

B2: HA22 (enfortumab) (antibody, V domains shown)
VH: EVQLVESGGGLVQPGGSLRLSCAASGFTFSSYNMNWVRQAPGKGLEWVSYISSSSSTIYYADSVKGRFTISRDNAKNSLSLQMNSLRDEDTAVYYCARAYYYGMDVWGQGTTVTVSS
VL: DIQMTQSPSSVSASVGDRVTITCRASQGISGWLAWYQQKPGKAPKFLIYAASTLQSGVPSRFSGSGSGTDFTLTISSLQPEDFATYYCQQANSFPPTFGGGTKVEIK
notes: also called 恩弗妥单抗; HA22 mAb
binding result [2]: binds

B3: Ch-5A12.2 (antibody, V domains shown)
VH: QIQLQQSGAELVKPGASVTLSCKTSGFTFNSMYISWLKQKPGQSLEWIAWIYAGTGGTRFNQKFTGKVQLTVDTSSSTAYMQFSSLTTDDSAIYYCAIRSGFVPMDYWGQGTSVTVSS
VL: SIVMTQTPKFLLVSAGDRVTITCKASQSVSNDVAWYQQKPGQSPKLLIYYASNRYTGVPDRFTGSGYGTDFTFTISTVQAEDLAVYFCQQDYSSPWTFGGGTKLEIK
notes: also called 5A12.2 mAb; chimeric 5A12.2
binding result [3]: binds | binding result [4]: binds | binding result [5]: binds
